# Measured values from paper PMC5462994.
# How the values were obtained:
# [1] = target: Recombinant M.tb H37Rv GAPDH, wild type (Mycobacterium tuberculosis H37Rv) (UniProt P9WN83); assay: ELISA; solid phase binding assay: 2 ug/well GAPDH coated on polystyrene wells in PBS pH 7.4; 7.5-1,000 nM biotinylated Lf in PBS with 1% fish skin gelatin, 25°C, 2 h; detected with anti-biotin; one-site specific binding fit
# [2] = target: Transferrin (Homo sapiens) (UniProt P02787); conditions: cited from earlier work
# Chain of UniProt P02787 (P02787 20-698): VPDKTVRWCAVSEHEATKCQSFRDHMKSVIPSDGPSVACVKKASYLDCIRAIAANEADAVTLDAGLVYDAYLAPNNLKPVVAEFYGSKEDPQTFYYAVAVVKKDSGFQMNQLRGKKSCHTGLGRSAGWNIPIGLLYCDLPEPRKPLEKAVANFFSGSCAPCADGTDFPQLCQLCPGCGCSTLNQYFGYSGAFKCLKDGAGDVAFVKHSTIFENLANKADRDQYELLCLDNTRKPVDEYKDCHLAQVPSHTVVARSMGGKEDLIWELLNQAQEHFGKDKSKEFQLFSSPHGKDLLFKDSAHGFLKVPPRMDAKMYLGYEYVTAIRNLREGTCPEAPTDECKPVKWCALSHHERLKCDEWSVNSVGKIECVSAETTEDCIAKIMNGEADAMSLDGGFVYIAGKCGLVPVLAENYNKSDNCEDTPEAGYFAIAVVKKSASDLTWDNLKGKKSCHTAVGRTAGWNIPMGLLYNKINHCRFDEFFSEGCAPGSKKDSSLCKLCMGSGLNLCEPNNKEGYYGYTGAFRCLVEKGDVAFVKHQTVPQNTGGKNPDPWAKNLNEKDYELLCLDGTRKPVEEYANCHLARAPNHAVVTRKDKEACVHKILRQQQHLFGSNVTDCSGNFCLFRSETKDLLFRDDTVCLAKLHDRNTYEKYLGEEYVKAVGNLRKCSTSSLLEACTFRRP
# Chain of GAPDH (P9WN83 whole entry): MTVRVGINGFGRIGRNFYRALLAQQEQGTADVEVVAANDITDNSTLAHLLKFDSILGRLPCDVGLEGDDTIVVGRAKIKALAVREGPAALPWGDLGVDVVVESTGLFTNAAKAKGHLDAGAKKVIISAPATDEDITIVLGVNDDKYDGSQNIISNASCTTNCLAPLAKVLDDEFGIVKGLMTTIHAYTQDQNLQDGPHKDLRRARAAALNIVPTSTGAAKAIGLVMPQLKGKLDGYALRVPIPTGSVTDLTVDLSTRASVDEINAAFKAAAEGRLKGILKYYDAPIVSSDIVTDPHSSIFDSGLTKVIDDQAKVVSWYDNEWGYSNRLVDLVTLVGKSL
Substance,Kd [1],Kd [2]
Biotinylated human lactoferrin (natural protein),31.7 nM,
GAPDH (from UniProt P9WN83),,160 nM
